From patent publication US5824484, “RXR homodimer formation” (La Jolla Cancer Research Foundation)

Columns and labels:
RXR alpha homodimer [1] = molecular target: T1, RXR alpha homodimer (UniProt P19793 P19793:1-462); assay: EMSA; with 9-cis-RA; conditions: chain copies: 2 (stated); label: 32P
Experimental: (§1) (a) In vitro synthesized RXRα was incubated either with (+) or without (−) indicated hormones (10^-7M 9-cis-RA; 10^-6M RA; 10^-6M T_3) in the presence or absence of in vitro synthesized TRα or RARβ for 30 min at room temperature. After this preincubation, the reaction mixtures were analyzed by gel retardation assay using ^32P-labeled TREpal as probe. Lane 1 represents the nonspecific binding of unprogrammed reticulocyte lysate. Open triangles indicate the nonspecific complex observed with unprogrammed reticulocyte lysate. Solid triangles indicate the specific TRα-RXRα heterodimer binding. Arrows indicate specific RXRα homodimer binding. The RXRα/RARβ heterodimer migrates at the same position as the RXRα homodimer. For comparison, the effect of 9-cis-RA on RARβ binding is shown.
(§2) FIGS. 4a and 4c show the response element specific binding of RXR homodimer. The effect of 9-cis-RA on RXR binding on RA specific response elements (a), T_3 specific response elements (b), or estrogen specific response element (c) was analyzed by gel retardation assays as described in FIG. 1a. For comparison, the binding of RXR/RAR heterodimer (a), RXR/TR heterodimer (b) or estrogen receptor (c) is shown. Open triangles indicate the nonspecific binding of unprogrammed reticulocyte lysate. Solid triangle indicates the RAR/RXR heterodimer complex (a), TR/RXR heterodimer complex (b) or ER complexes (c). […]

RXR alpha homodimer [2] = molecular target: T1, RXR alpha homodimer; assay: EMSA; with 9-cis-RA (effect from 1e-9 M, optimal 1e-8 M); little binding without ligand; also induced by SR11217 and SR11237; conditions: chain copies: 2 (stated); label: 32P
Experimental: as §1

Estrogen receptor = Estrogen receptor (UniProt P03372 P03372:1-595); assay: EMSA; ER complex shown for comparison; conditions: chain copies: 2 (inferred); label: 32P
Sequence of Estrogen receptor (P03372 whole entry, one chain of several): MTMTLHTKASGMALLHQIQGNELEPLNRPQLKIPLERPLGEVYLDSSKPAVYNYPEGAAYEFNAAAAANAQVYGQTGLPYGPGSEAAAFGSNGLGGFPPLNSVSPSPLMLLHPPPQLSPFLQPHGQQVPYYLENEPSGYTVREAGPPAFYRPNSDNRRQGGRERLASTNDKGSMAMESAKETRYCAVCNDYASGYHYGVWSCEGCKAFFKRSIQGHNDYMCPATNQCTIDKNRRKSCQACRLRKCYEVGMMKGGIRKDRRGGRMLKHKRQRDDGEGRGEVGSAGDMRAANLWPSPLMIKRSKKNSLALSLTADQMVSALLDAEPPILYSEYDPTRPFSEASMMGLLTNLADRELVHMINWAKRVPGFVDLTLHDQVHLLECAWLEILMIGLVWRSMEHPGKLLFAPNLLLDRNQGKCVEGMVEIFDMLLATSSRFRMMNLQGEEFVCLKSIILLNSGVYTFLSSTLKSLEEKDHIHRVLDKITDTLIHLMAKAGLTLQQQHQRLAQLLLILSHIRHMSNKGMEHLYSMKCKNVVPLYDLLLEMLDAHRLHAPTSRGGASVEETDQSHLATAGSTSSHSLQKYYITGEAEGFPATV
Experimental: as §1, §2

RAR beta = molecular target: T2, RAR beta (UniProt P10826-2 P10826-2:1-448); assay: EMSA; RAR homodimer not induced by 9-cis-RA; conditions: label: 32P
T2 sequence: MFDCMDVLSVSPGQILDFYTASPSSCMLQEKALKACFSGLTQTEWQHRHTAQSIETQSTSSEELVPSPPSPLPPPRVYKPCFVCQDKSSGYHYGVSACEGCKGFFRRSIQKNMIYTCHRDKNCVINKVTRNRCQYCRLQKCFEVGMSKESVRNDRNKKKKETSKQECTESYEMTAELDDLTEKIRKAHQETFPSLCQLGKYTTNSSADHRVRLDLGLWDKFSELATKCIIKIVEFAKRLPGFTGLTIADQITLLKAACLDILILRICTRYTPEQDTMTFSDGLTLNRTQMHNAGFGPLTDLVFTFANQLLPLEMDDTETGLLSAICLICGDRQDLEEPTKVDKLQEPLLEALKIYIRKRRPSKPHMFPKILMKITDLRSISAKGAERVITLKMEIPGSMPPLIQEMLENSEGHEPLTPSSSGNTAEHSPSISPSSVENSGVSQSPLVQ
Experimental: as §1
(§3) (b) The effect of 9-cis-RA on RXR homodimer binding of ApoAI-RARE or CRBPII-RARE was analyzed essentially as described in FIG. 1a. Lane 1 represents the nonspecific binding of unprogrammed reticulocyte lysate, which are indicated by the open triangles. Solid triangles indicate the RAR/RXR heterodimer complex. Arrows indicate the specific RXR binding complex.
(§4) Gel retardation assays using in vitro synthesized receptor protein are described in the FIG. 1 legend. The following oligonucleotides and their complements were used as probes in FIGS. 3 and 4.

RXR alpha homodimer [3] = molecular target: T1, RXR alpha homodimer; assay: EMSA; strong with 9-cis-RA, lesser with 1e-6 M RA; conditions: chain copies: 2 (stated); label: 32P
Experimental: as §1, §3, §4

[4] = molecular target: TR alpha/RXR alpha heterodimer (UniProt P10827-2;P19793 P10827-2:1-410,P19793:1-462); assay: EMSA; conditions: label: 32P
Sequence of TR alpha/RXR alpha heterodimer (P10827 other isoform, or with tags, fused parts or gaps, chain 1 of 2): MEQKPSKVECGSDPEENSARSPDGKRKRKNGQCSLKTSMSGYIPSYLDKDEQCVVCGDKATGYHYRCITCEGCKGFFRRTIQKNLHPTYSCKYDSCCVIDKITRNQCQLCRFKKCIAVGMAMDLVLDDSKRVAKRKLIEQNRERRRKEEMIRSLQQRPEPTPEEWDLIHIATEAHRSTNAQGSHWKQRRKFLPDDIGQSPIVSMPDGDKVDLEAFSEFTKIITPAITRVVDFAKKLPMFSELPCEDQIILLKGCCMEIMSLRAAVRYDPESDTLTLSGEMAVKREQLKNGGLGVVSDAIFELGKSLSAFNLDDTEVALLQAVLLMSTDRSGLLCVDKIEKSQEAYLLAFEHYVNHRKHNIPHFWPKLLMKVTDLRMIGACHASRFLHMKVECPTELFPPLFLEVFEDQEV
Sequence of TR alpha/RXR alpha heterodimer (P19793 whole entry, chain 2 of 2): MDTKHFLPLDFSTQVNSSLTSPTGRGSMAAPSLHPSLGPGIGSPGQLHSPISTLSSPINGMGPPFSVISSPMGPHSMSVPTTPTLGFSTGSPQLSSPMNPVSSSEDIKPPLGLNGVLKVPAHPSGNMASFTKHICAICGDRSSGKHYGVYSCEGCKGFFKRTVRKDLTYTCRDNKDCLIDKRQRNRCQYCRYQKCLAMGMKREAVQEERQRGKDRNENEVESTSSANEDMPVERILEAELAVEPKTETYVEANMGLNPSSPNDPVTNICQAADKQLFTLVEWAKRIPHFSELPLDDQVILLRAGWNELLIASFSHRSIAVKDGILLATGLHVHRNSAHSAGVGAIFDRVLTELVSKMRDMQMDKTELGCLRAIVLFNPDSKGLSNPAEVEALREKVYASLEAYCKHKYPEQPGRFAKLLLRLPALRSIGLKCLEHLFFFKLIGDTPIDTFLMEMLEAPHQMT
Experimental: as §1, §2

RXR alpha homodimer [5] = molecular target: T1, RXR alpha homodimer; assay: EMSA; with or without 9-cis-RA; conditions: chain copies: 2 (stated); label: 32P
Experimental: as §1, §2

RXR alpha homodimer [6] = molecular target: T1, RXR alpha homodimer; assay: EMSA; with 9-cis-RA; complex slower than heterodimer; reduced when RAR present; conditions: chain copies: 2 (stated); label: 32P
Experimental: as §1, §3, §4

T1 sequence (P19793 whole entry, one chain of several): as the sequence (P19793 whole entry, chain 2 of 2) above

B1: CRBPI-RARE (dsDNA)
DNA 1: GATCCAGGTCAAAAAGTCAGGATC
DNA 2: GATCCTGACTTTTTGACCTGGATC
RXR alpha homodimer [1]
  binding result: no binding

B2: TREpal (dsDNA)
DNA 1: GATCTCAGGTCATGACCTGAGATC
DNA 2: GATCTCAGGTCATGACCTGAGATC
RXR alpha homodimer [2]
  binding result: binds

B3: ERE (dsDNA)
DNA 1: GATCTCAGGTCACTGTGACCTGAGATC
DNA 2: GATCTCAGGTCACAGTGACCTGAGATC
Estrogen receptor
  binding result: binds

B4: DR-5 (dsDNA)
DNA 1: GATCTCAGGTCATCCTCAGGTCAGATC
DNA 2: GATCTGACCTGAGGATGACCTGAGATC
RXR alpha homodimer [1]
  binding result: no binding

B5: ApoAI-RARE (dsDNA)
DNA 1: GATCAGGGCAGGGGTCAAGGGTTCAGTGATC
DNA 2: GATCACTGAACCCTTGACCCCTGCCCTGATC
RAR beta
  binding result: no binding
RXR alpha homodimer [3]
  binding result: binds

B6: MHC-TRE (dsDNA)
DNA 1: GATCCTGGAGGTGACAGGAGGACAGCGATC
DNA 2: GATCGCTGTCCTCCTGTCACCTCCAGGATC
[4]
  binding result: binds
RXR alpha homodimer [5]
  binding result: no binding

B7: ME-TRE (dsDNA)
DNA 1: GATCCAGGACGTTGGGGTTAGGGGAGGACAGTGGGATC
DNA 2: GATCCCACTGTCCTCCCCTAACCCCAACGTCCTGGATC
[4]
  binding result: binds
RXR alpha homodimer [5]
  binding result: no binding

B8: CRBPII-RARE (dsDNA)
DNA 1: GATCCAGGTCACAGGTCACAGGTCACAGTTCAAGATC
DNA 2: GATCTTGAACTGTGACCTGTGACCTGTGACCTGGATC
RXR alpha homodimer [6]
  binding result: binds
